A short description of data set [1]: 125I-FSH binding to CHO-hFSHR membranes ± Compound 5. The note with it: glycan lost; control: glycosylated FSH (about 3-fold more binding with Compound 5).
Data set [2] concerns the target FSHR of the PathHunter FSHR β-arrestin assay cells (UniProt P23945). As to the kind of experiment: split reporter (BiFC, NanoBiT); PathHunter FSHR β-arrestin recruitment assay (DiscoveRx 93-0517C2) in CHO cells; cells stimulated with FSH, Compound 5, both, or the βT60E mutant; recruited β-arrestin normalized to 100% for the maximum response of FSH.

Sequence of β-arrestin of the PathHunter FSHR β-arrestin assay cells (P32121 whole entry): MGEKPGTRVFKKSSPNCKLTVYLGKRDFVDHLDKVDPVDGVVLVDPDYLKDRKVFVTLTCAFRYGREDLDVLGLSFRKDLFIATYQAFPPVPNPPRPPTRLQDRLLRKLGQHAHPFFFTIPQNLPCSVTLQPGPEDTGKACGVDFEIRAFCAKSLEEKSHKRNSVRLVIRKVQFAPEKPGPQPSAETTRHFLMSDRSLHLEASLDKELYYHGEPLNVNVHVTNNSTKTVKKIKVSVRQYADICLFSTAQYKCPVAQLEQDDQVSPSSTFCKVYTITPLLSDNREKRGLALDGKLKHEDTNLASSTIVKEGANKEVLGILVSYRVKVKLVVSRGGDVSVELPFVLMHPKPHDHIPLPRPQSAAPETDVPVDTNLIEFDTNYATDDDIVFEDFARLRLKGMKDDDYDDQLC
Sequence of FSHR of the PathHunter FSHR β-arrestin assay cells (P23945 18-695): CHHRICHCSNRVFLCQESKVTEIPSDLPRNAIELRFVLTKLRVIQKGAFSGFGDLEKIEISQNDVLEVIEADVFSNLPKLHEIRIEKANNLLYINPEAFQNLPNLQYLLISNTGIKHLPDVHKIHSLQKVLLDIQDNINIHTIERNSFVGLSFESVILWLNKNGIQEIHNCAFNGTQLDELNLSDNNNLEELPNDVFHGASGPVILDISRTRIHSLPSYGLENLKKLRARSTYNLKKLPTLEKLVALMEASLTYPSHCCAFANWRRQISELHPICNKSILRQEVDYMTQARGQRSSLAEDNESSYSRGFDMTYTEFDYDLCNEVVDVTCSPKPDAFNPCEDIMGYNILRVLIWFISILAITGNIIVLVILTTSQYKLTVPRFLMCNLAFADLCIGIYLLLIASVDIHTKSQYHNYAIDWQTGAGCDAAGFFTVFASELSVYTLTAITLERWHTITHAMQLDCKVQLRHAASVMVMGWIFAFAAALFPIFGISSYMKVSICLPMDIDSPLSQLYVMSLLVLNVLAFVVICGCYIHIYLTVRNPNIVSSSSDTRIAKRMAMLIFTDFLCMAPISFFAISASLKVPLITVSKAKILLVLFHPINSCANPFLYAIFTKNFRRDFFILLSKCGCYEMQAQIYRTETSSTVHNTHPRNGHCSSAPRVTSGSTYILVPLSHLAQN
Sequence of FSH α-subunit: αN52D (chain, as listed by the source N52D): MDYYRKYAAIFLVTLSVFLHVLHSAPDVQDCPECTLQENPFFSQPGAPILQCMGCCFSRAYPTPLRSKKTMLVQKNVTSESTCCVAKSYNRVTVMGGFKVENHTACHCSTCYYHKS

As to FSH α-subunit: αN52D, the “other: Compound 5 enhancement of FSHR binding” value in data set [1] is “decreases”. Take “β-arrestin of the PathHunter FSHR β-arrestin assay cells (from UniProt P32121 1-409) (natural protein)”: in data set [2], the β-arrestin recruited with Compound 5 plus FSH at EC100, percent of the maximum with FSH alone was 280% and the β-arrestin recruited with FSH plus a high concentration of Compound 5, percent of the maximum with FSH alone was 280%.

(Values after publication PMC4022893.)
